Residue numbers refer to the chain shown, from its start.
Assays:
[1] = molecular target: T1, recombinant SMase D LiD1 from L. intermedia (Loxosceles intermedia, UniProt P0CE81); test: ELISA; conditions: both partners purified
T1 construct: also called rLiD1; recombinant sphingomyelinase D

[2] = molecular target: T1, recombinant SMase D LiD1 from L. …; test: SPR; conditions: both partners purified

T1 sequence (P0CE81 27-306): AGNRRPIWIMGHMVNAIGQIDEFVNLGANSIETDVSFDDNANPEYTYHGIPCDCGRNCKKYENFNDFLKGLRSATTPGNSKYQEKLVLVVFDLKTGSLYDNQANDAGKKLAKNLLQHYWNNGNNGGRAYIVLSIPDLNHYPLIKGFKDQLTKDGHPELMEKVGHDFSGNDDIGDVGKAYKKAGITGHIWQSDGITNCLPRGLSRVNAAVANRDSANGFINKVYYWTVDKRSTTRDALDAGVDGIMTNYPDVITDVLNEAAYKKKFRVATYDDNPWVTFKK

B1: scFv15hLi7m (scFv, V domains shown)
VH: QVQLQQSGAEVKKPGASVKVSCKASGYAFSSSWMNWVRQAPGQGLEWMGRIYPGDGDTNYNQKFQGRVTMTRDTSTSTVYMELSSLRSEDTAVYFCARWTYGYSKYYYFDDWGQGTLVTVSS
VL: DIQMTQSPSSLSASVGDRVTITCRASQSLLWNVNENNYLSWYQQKQGKAPKLLIYGASILESGVPSRFSGSGSGTDFTLTISSLQPEDFATYYCQHNHGSFLPYTFGQGTKLEIK
notes: also called second generation of the humanized scFv; monomeric scFv
binding result [1]: binds

B2: scFv15hLi7 (scFv, V domains shown)
VH: B1 VH with F95Y
VL: B1 VL with Q46P
notes: also called humanized scFv; first generation of the humanized scFv
Kd [2]: 56.6 nM
koff [2]: 0.0103 s⁻¹
kon [2]: 182000 M⁻¹ s⁻¹

B3: scFv5hLi7m (scFv, V domains shown)
VH: B1 VH
VL: B1 VL
notes: also called (scFv5hLi7m)2; dimeric scFv5hLi7m
binding result [1]: binds
